The subject of this data set is Escherichia coli TOP10. Put plainly: shrunken log2 fold change of peptide-encoding DNA abundance (4.5 h post-induction vs induction); higher = less antimicrobial activity (less host growth inhibition). The conditions noted are these: time post-induction: 4.5 h; library: site-saturation at positions 5, 18, 19, 20.
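Note: peptides expressed intracellularly from a pBAD plasmid library in pooled LB shake-flask culture, induced with 0.3% L-arabinose, DNA abundance read by NGS, three biological replicates, DESeq2 with apeglm shrinkage.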

Consider RRIRGRPPRLPRPRPRPGCRPRP, for which the “shrunken log2 fold change” value amounted to 1.16.
For the sequence RRIRLRPPRLPRPRPRPNHEPRP, the “shrunken log2 fold change” value was -0.0961.
For the sequence RRIRHRPPRLPRPRPRPCEHPRP, the “shrunken log2 fold change” value is -0.00546.
Then RRIRLRPPRLPRPRPRPEVLPRP, with -0.0871; and RRIRERPPRLPRPRPRPAACPRP, with 0.0165.
For RRIRGRPPRLPRPRPRPVWIPRP the value was 0.276; for RRIRKRPPRLPRPRPRPDRNPRP, 0.158; for RRIRRRPPRLPRPRPRPRLYPRP, -0.00733.
Then RRIRSRPPRLPRPRPRPWPGPRP, with -0.139; and RRIRKRPPRLPRPRPRPGDMPRP, with 0.277; and RRIRIRPPRLPRPRPRPHNNPRP, with -0.313.
For the sequence RRIRHRPPRLPRPRPRPKTYPRP, the “shrunken log2 fold change” value was -1.51.
Then RRIRIRPPRLPRPRPRPVHRPRP, with -0.194; and RRIRCRPPRLPRPRPRPDIDPRP, with -0.182.
Then RRIRQRPPRLPRPRPRPNKAPRP, with -0.041; and RRIRTRPPRLPRPRPRPPMVPRP, with 0.152.
For RRIRHRPPRLPRPRPRPWWLPRP the value was -0.0295; for RRIRYRPPRLPRPRPRPHDEPRP, -0.0568.
On to RRIRTRPPRLPRPRPRPNMPPRP, for which the “shrunken log2 fold change” value is -0.0405.
With RRIRLRPPRLPRPRPRPFEDPRP, the “shrunken log2 fold change” value was -0.193.
In the case of RRIRDRPPRLPRPRPRPNHNPRP, the “shrunken log2 fold change” value is -0.539.
RRIRDRPPRLPRPRPRPVIPPRP: the “shrunken log2 fold change” value turned out to be 0.471.
For RRIRMRPPRLPRPRPRPRAEPRP the value was 1.73; for RRIRTRPPRLPRPRPRPKIAPRP, -0.0425.
Take RRIRMRPPRLPRPRPRPGMCPRP: the “shrunken log2 fold change” value is 0.19.
For RRIRERPPRLPRPRPRPGKNPRP the value was -0.212.
For RRIRGRPPRLPRPRPRPWHRPRP the value was 0.0496.
For RRIRRRPPRLPRPRPRPCIKPRP the value was -0.0974; for RRIRKRPPRLPRPRPRPQAQPRP, 0.0703; for RRIRWRPPRLPRPRPRPTNMPRP, -0.154.
Regarding RRIRYRPPRLPRPRPRPLNEPRP, the “shrunken log2 fold change” value is -0.0438.
As for RRIRMRPPRLPRPRPRPLLRPRP, the “shrunken log2 fold change” value was 0.0923.
Then RRIRKRPPRLPRPRPRPLRNPRP, with 0.653; and RRIRSRPPRLPRPRPRPPFCPRP, with 0.135.
Then RRIRWRPPRLPRPRPRPHFHPRP, with -0.596; and RRIRGRPPRLPRPRPRPCCAPRP, with 1.55; and RRIRTRPPRLPRPRPRPCQMPRP, with -0.267.
For the sequence RRIRKRPPRLPRPRPRPGCTPRP, the “shrunken log2 fold change” value was 0.517.
Then RRIRSRPPRLPRPRPRPPRKPRP, with 0.73; and RRIRKRPPRLPRPRPRPSWHPRP, with -0.0776.
For RRIRCRPPRLPRPRPRPLVGPRP the value was 3.69.
Then RRIRCRPPRLPRPRPRPDQYPRP, with -0.277; and RRIRDRPPRLPRPRPRPYNWPRP, with -0.281; and RRIRKRPPRLPRPRPRPCTRPRP, with -0.103.
As to RRIRPRPPRLPRPRPRPIEDPRP, the “shrunken log2 fold change” value is -0.0617.
Then RRIRCRPPRLPRPRPRPKRVPRP, with 0.267; and RRIRWRPPRLPRPRPRPRRWPRP, with 0.482; and RRIRHRPPRLPRPRPRPNHQPRP, with -1.24.
Then RRIRERPPRLPRPRPRPYPGPRP, with -0.379; and RRIRFRPPRLPRPRPRPNTHPRP, with -0.579.
